Data: US20160053025A1 (SAMSUNG ELECTRONICS, published 2016)
Substitutions are numbered along the chain they refer to.

T1: recombinant hAng-2 (C-His, R&D Systems) (human, UniProt O15123 19-496)
T1 construct: Bought protein; also called human Ang-2 protein; C-terminal histidine-tagged human Ang2 (R&D Systems); not shown: C-terminal His tag
T1 sequence: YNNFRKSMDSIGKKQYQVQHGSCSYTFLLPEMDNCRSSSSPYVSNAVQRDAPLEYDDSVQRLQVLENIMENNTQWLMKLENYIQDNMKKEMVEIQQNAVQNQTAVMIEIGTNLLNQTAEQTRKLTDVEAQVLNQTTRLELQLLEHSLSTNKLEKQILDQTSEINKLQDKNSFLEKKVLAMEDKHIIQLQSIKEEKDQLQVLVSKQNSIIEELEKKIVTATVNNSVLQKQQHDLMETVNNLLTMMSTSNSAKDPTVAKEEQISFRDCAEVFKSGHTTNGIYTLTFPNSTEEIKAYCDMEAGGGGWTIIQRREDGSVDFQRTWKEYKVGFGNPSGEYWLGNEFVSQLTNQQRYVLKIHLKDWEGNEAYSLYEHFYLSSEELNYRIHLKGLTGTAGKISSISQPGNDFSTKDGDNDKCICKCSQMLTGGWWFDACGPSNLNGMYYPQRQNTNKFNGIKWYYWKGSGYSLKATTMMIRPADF

B1: FLAG-tagged hAng-2 (ligand)
chain: T1 sequence
notes: not shown: FLAG tag
B2: Ang2 protein (R&D systems) (ligand)
chain: T1 sequence
notes: Ang2 as used in the hybridoma screen, the HUVEC assays and the complex ELISA; also called human Ang2 protein; Human Ang-2 protein
B3: h10D6-OPTI-1 (antibody, human IgG1, V domains shown)
VH: QVQLQESGPGLVKPSETLSLTCAVSGYSITSDYAWNWIRQPPGKGLEWMGKISYSGKTDYNPSLKSRSTISRDTSKNQFSLKLSSVTAADTAVYYCARGNFEGAMDYWGQGTLVTVSS
VL: DIQMTQSPSSLSASVGDRVTITCKASQSVSNDVAWYQQKPGKAPKLLIYYASNRYPGVPSRFSGSGSGTDFTLTISSLQPEDFATYYCQQDYSSPWTFGQGTKLEIK
B4: h10D6-OPTI-3 (antibody, human IgG1, V domains shown)
VH: EVQLVESGGGLVQPGGSLRLSCAASGYSITSDYAWNWVRQAPGKGLEWMGKISYSGKTDYNPSLKSRSTISRDTSKNTFYLQMNSLRAEDTAVYYCARGNFEGAMDYWGQGTLVTVSS
VL: B3 VL
B5: 10D6-HU2 (antibody, V domains shown)
VH: B3 VH with K51Y, S53N, K57N
VL: B3 VL
notes: Humanized antibody; also called humanized antibody 10D6-HU2
B6: 10D6-HU3 (antibody, V domains shown)
VH: B4 VH with K51Y, S53N, K57N
VL: B3 VL
notes: Humanized antibody; also called humanized antibody 10D6-HU3
B7: h10D6-OPTI-17 (antibody, human IgG1, V domains shown)
VH: B4 VH with S53N, S55A, K57N
VL: B3 VL with A34H
B8: h10D6-OPTI-65 (antibody, human IgG1, V domains shown)
VH: B3 VH
VL: B3 VL with N53I, R54P
B9: h10D6-OPTI-43 (antibody, human IgG1, V domains shown)
VH: B3 VH
VL: B3 VL with A34H
B10: h10D6-OPTI-55 (antibody, human IgG1, V domains shown)
VH: B3 VH with S53N, S55A, K57N
VL: B3 VL with A34H
B11: 10D6-HU5 (antibody, V domains shown)
VH: B3 VH with M49I, K51Y, S53N, K57N, S68V, R72V
VL: B3 VL
notes: Humanized antibody; also called humanized antibody 10D6-HU5
B12: h10D6-OPTI-70 (antibody, human IgG1, V domains shown)
VH: B4 VH
VL: B3 VL with N53I, R54P
B13: h10D6-OPTI-68 (antibody, human IgG1, V domains shown)
VH: B4 VH
VL: B3 VL with S28F, N31T, A34H
B14: h10D6-OPTI-42 (antibody, human IgG1, V domains shown)
VH: B3 VH with M49I, K51Y, S53N, K57N, S68V, R72V
VL: B3 VL with A34H, Q90H, W96F
B15: h10D6-OPTI-4 (antibody, human IgG1, V domains shown)
VH: B4 VH with S53N, S55A, K57N
VL: B3 VL
B16: h10D6-OPTI-2 (antibody, human IgG1, V domains shown)
VH: B3 VH with S53N, S55A, K57N
VL: B3 VL
B17: h10D6-OPTI-67 (antibody, human IgG1, V domains shown)
VH: B3 VH
VL: B3 VL with A34H, N53I, R54P
B18: h10D6-OPTI-16 (antibody, human IgG1, V domains shown)
VH: B4 VH
VL: B3 VL with A34H
B19: 10D6-HU1 (antibody, V domains shown)
VH: B3 VH with T30S, M49I, K51Y, S53N, K57N, S68V, R72V
VL: B3 VL
notes: Humanized antibody; also called humanized antibody 10D6-HU1
B20: h10D6-OPTI-63 (antibody, human IgG1, V domains shown)
VH: B3 VH
VL: B3 VL with S28F, N31T, A34H
B21: 4H10 (antibody, V domains shown)
VH: EVQLLESGGGLVQPGGSLRLSCAASGFTFSSYDMSWVRQAPGKGLEWVSLISPDSSSIYYADSVKGRFTISRDNSKNTLYLQMNSLRAEDTAVYYCAKDLISFWRGGFDYWGQGTLVTVSS
VL: QSVLTQPPSASGTPGQRVTISCSGSSSNIGSNYVNWYQQLPGTAPKLLIYADSNRPSGVPDRFSGSKSGTSASLAISGLRSEDEADYYCGSWDYSLSGYVFGGGTKLTVLG
notes: also called anti-Ang2 antibody 4H10

How the values were obtained:
BSA = target: T2, BSA (Bos taurus, UniProt P02769); assay: Complex ELISA: plate coated with BSA, FLAG-Ang2 0.25 ug/ml shown by 10D6 2 ug/ml and anti-mouse IgG-HRP, OD450
T2 construct: commercial preparation; also called Bovine serum albumin; Sigma
T2 sequence (P02769 25-607 limits assumed): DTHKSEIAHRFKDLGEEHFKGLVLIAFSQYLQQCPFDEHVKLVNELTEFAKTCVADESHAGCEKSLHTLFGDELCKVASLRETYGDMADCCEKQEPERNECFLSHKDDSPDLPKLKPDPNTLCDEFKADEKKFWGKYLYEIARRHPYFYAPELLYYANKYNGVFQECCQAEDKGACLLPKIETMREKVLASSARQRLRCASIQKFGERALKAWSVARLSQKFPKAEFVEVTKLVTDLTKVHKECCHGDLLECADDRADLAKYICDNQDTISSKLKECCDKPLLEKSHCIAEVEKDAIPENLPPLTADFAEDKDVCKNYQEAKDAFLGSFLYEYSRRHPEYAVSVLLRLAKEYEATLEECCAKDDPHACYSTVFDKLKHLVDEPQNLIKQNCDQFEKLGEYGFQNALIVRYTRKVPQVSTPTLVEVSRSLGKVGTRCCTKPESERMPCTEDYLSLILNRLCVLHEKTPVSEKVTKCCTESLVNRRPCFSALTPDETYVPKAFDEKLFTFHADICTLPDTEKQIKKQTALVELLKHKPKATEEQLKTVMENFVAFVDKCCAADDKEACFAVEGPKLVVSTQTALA
Method: (§1) A 96-well MaxiSorp™ flat-bottom plate (Nunc) was coated with 4 μg/ml of Tie2-Fc (R&D systems) or BSA (Sigma). Then, the plate was washed five times with 0.05% (v/v) Tween-20-containing PBS (Phosphate Buffer Saline) and blocked with 1% (v/v) BSA (Bovine serum albumin; Sigma)-containing PBS at a room temperature for 2 hours. 0.25 μg/ml of Ang2 and 2 μg/ml of 10D6 antibody were added to each well of the plate, which was allowed to react at a room temperature for 2 hours and then washed five times with PBST. After that, an anti-mouse IgG antibody (Sigma) conjugated with HRP diluted in 1% (v/v) BSA-containing PBS at a ratio of 1:5,000 (v/v) was added in an amount of 100 ul to each well to react at a room temperature for 1 hour and then, the plate was washed five times with PBST. Lastly, 100 ul (microliter) of TMB substrate (Cell Signaling) was added to each well of the plate to induce color development for 3 min. and then, the reaction was ceased by the addition of 100 ul of Stop solution (Cell Signaling) and OD450 values were measured on a plate reader (Molecular Devices).

hTie2-Fc (R&D Systems) = target: T3, hTie2-Fc (R&D Systems) (human, UniProt Q02763 23-745); assay: ELISA, Tie2-Fc coated, Ang2 and 10D6 added, detected with anti-mouse IgG-HRP
T3 construct: Bought fusion protein; also called hTie-2/Fc fusion protein; not shown: Fc of human IgG1
T3 sequence (Q02763 23-745 limits assumed): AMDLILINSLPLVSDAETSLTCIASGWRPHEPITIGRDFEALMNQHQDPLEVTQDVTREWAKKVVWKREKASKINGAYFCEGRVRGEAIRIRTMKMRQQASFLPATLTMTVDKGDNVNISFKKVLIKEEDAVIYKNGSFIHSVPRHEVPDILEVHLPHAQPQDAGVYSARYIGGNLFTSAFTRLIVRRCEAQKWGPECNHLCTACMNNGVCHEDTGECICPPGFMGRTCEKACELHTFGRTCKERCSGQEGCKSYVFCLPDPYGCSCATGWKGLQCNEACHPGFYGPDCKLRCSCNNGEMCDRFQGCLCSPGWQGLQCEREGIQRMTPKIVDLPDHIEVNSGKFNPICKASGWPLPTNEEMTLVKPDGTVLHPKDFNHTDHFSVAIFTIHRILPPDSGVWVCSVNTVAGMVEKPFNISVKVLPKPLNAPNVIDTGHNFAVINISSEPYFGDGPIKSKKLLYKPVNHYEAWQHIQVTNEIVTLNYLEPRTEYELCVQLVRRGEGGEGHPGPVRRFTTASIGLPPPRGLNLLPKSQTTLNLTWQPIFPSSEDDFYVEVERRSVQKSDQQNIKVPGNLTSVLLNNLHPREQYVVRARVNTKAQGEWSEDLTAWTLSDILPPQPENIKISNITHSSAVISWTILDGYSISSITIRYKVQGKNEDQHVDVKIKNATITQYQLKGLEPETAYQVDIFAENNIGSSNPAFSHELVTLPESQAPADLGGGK
Method: as §1

[1] = target: T1, recombinant hAng-2 (C-His, R&D Systems); assay: SPR, BIAcore T100; hAng2 (C-His) captured by anti-His antibody on CM5, antibody as analyte
Method: The binding affinity (KD values) of the antibodies to human Ang2 protein was measured by an SPR method using a BIAcore T100 (GE Healthcare). 25 μg/ml anti-His antibody was immobilized on a CM5 sensor chip (GE healthcare) using a pH 5.0 acetate solution and an amine coupling kit (GE Healthcare). 6 μg/ml of a recombinant hAng2 (C-His, R&D Systems) protein was flowed onto the chip to be captured at 100 to 200 RU levels.

FLAG-tagged hAng-2 = target: B1; assay: Ang2-Tie2 competition ELISA: plate coated with hTie2-Fc, 400 ng/ml FLAG-tagged hAng-2 with antibody at varied concentration, detection with anti-FLAG-HRP; blocked ligand/receptor: hTie2-Fc
Method: More specifically, MaxiSorp™ flat-bottom plate (Nunc) of 96-well was coated with hTie2-Fc (R&D Systems) which is a protein bound with 4 μg/ml of Fc of human IgG1. After that, the plate was washed five times with 0.05% (v/v) Tween-20-containing PBS (phosphate buffer saline) and then blocked with 1% (v/v) BSA (bovine serum albumin; Sigma)-containing PBS at a room temperature for 2 hour.
For Ang2:Tie2 competition ELISA, each anti-Ang2 antibody obtained in Example 2 was placed at various concentrations of 400 nM-0.001 nM into each well coated with the hTie-2/Fc fusion protein along with 1% (v/v) BSA and 400 ng/ml of a FLAG-tagged hAng-2 and then, the plate was allowed to react at a room temperature for 2 hours and washed five times with PBST. After that, an anti-FLAG antibody (Sigma) conjugated with HRP diluted in 1% (v/v) BSA-containing PBS at a ratio of 1:5,000 (v/v) was added in an amount of 100 μl to each well to react at a room temperature for 1 hour and then, the plate was washed five times with PBST. Lastly, 100 μl of TMB substrate (Cell Signaling) was added to each well of the plate to induce color development for 3 min. and then, the reaction was ceased by the addition of 100 μl of Stop solution (Cell Signaling) and OD450 values were measured on a plate reader (Molecular Devices). […]

binding result (BSA) | binding result (hTie2-Fc (R&D Systems)) | Kd [1] | koff [1] | kon [1] | IC50 (read off the curve) (FLAG-tagged hAng-2) | Binder
no binding (tested: 0.25 ug/ml) | – | – | – | – | – | B1
– | binds | – | – | – | – | B2
– | – | 0.68 nM | 0.000321 s⁻¹ | 474000 M⁻¹ s⁻¹ | – | B3
– | – | 0.49 nM | 0.000307 s⁻¹ | 624000 M⁻¹ s⁻¹ | – | B4
– | – | 47 nM | 0.00346 s⁻¹ | 73000 M⁻¹ s⁻¹ | – | B5
– | – | 43 nM | 0.00194 s⁻¹ | 45000 M⁻¹ s⁻¹ | – | B6
– | – | 0.76 nM | 0.00035 s⁻¹ | 460000 M⁻¹ s⁻¹ | – | B7
– | – | – | 2.25e-05 s⁻¹ | – | – | B8
– | – | 0.38 nM | 0.000576 s⁻¹ | 1.53e+06 M⁻¹ s⁻¹ | – | B9
– | – | 0.14 nM | 8.49e-05 s⁻¹ | 621000 M⁻¹ s⁻¹ | – | B10
– | – | 64 nM | 0.00312 s⁻¹ | 48600 M⁻¹ s⁻¹ | – | B11
– | – | 0.437 nM | 0.000116 s⁻¹ | 265000 M⁻¹ s⁻¹ | – | B12
– | – | 0.317 nM | 0.00017 s⁻¹ | 536000 M⁻¹ s⁻¹ | – | B13
– | – | 0.85 nM | 0.000286 s⁻¹ | 336000 M⁻¹ s⁻¹ | – | B14
– | – | 0.33 nM | 0.000246 s⁻¹ | 736000 M⁻¹ s⁻¹ | – | B15
– | – | 0.34 nM | 0.000149 s⁻¹ | 424000 M⁻¹ s⁻¹ | – | B16
– | – | 0.000129 nM | 2.68e-07 s⁻¹ | 2.08e+06 M⁻¹ s⁻¹ | – | B17
– | – | 0.92 nM | 0.000443 s⁻¹ | 479000 M⁻¹ s⁻¹ | – | B18
– | – | 84 nM | 0.0026 s⁻¹ | 30800 M⁻¹ s⁻¹ | – | B19
– | – | 0.0277 nM | 7.42e-05 s⁻¹ | 2.68e+06 M⁻¹ s⁻¹ | – | B20
– | – | – | – | – | ~0.2 nM | B21
